Data taken from the DeepSol protein solubility set.

Assay: soluble on expression in E. coli; label from the status in PepcDB or PDB records

Q: With “MSLKINIKDDAQAYLADKIPAGSQVILTTDDGSNKYSSLGGSCAIGNKFQLVILKAADPDYTTPLENNAGYVMHVAPADEAYLGNGLNISRWHNALALKDDSGMLDGALAVVDWRDVSPETEAERREKMQTIGTKICEGHHHHHH” as the sequence, how does the “soluble on expression in E. coli” value read?
A: soluble

Q: Which “soluble on expression in E. coli” value does the source give for “GMKNIKIMRLVTGEDIIGNISESQGLITIKKAFVIIPMQATPGKPVQLVLSPWQPYTDDKEIVIDDSKVITITSPKDDIIKSYESHTSEIITPSGLITET” here?
A: soluble

Q: For “MSTVGLFHFPTPLTRICPAPWGLRLWEKLTLLSPGIAVTPVQMAGKKDYPALLSLDENELEEQFVKGHGPGGQATNKTSNCVVLKHIPSGIVVKCHQTRSVDQNRKLARKILQEKVDVFYNGENSPVHKEKREAAKKKQERKKRAKETLEKKKLLKELWESSKKVH”, which “soluble on expression in E. coli” value is on record?
A: soluble

Q: With “MSKHRIALAGNPNTGKSTLFNTLTGLKQHTGNWTGKTVLKAEGEYEHNGSNYTLIDLPGTYSLYSNSADEEVARDYIIFEKPEVTVVVIDATAMERNLNLALQVMEMTNNVVICINLIDEAEKKGIVIDEKKLAKSLGVPVVKISARNRVGIGHLLNVIAKVANKKLIPTPIKITYSEKIENMIQELEPQIYKVFGDTYPARWIALRILDGDKNFLTTLQKHHNEPLVREVVINGISLSQ” as the sequence, how does the “soluble on expression in E. coli” value read?
A: not soluble

Q: With “MSLNVVKFGGSSLASAPQLQKVLQIVKEEPRRTFVVVSAPGKRTPQDIKVTDLLIQYYQRYLNNEEIESTISAIIRRYEDLFDELHLDKAVLADIAISIRQLATLPKENNAFLFDYFLASGEDNNAKVVASFFKQNGLDARYISPKELGLLVTPEPGNARILPKALEKISVYRETQQILVIPGFFGYTEAGEICTFSRGGSDITGSIVAAGVQADLYENFTDVDGIYVAHPGIIEQPQTIQELTYREMRELAYAGFAVLHDEALMPAYRANIPVVIKNTNNPHHPGTLITTSRKVKHAPVVGIASDQGFASIYISKYLMNRELGFGRRLLEVLEKLALSYEHMPSGIDDITIVLREDQLTTEIENRLMAQLQEVLAPDELRITHHLSMIMIVGEGMRQRIGVTAESTMALAKEKINLEMINQGSSEVSIMFGIKKEQEEKAIKALYRTFFHDEGHHHHHH” as the sequence, how does the “soluble on expression in E. coli” value read?
A: soluble

Q: Which “soluble on expression in E. coli” value does the source give for “MSLKELIALKRKVGLPGVTFAAMADGIWVLQVLPGAGIEKTGLRKGHQIVGVGGKPLAGNKLEDLFKAIEANNITDTMSRGSSERMYSRMTRDTKTQGPVVVLNVKQSRQQEKPFLILCKKEMFRSKIIEIEEDEFEDEVLKAPLPVAVTFWGDSCEPCKEFVPVLEAESAKYAGKVKFVNINVDGNRKLADQLAVKEVPALMVYKGGSAVATATGKLPREKVAEMLQDAAGREGHHHHHH” here?
A: soluble

Q: Which “soluble on expression in E. coli” value does the source give for “MEVKAFLERETLDRTLGVRYLKAEKDEVVAELVVTPKVHQPFGFLHGGATVALAESVASVGGFLNCPPGHAAFGLEINCNHLRKKREGTIRAVGRPLHVGRTTQVWEVKVYDEEGRLVAASRCTLAVVPLEPAKEPA” here?
A: soluble

Q: With “MPGIAIIGAQWGDEGKGKVVDVLAREADYVIRYQGGANAGHTVVAEGKVFKLNLLPSGVIHPHAVNVLGDGMVIDPFRFQEEVEGLRKEGFDPKILVSERAHLVLPHHKHVESRHNFVGTTGRGIGPAYSDRARRVGIRAGDLLDEATLRERVRRLLAEKPNSTREAGWDTEEKALADLHRMREILSPYIADTGSLLREAWRKGKRLLFEGAQATLLDLNYGTYPYVTSSHPTVGGILVGTGLSHKAITKVYGVAKAYTTRVGEGPFPTELQGELAHHLREKGGEYGTTTGRPRRVGWLDLVALRYACEVNGFDGLVLTKLDVLSGLEKVKVAVEYLDGARPGEASPEAVRYLELPGWGDLSHVKRREDLPANLLRYLELVEEHTGVPVVLFSTSPRREDTFGAVSWV” as the sequence, how does the “soluble on expression in E. coli” value read?
A: soluble

Q: Which “soluble on expression in E. coli” value does the source give for “KTIYLQSPYFIPDASLLEAIKIAALSGVDVRVMIPNKPDHAFVYRATTNYAGELMETGAKIFIYDNGFIHAKTLVVDGEIASVGTANMDFRSFRLNFEVNAFIYEKKMVQKLEDAFLEDILKSYQLTPELYAKR” here?
A: not soluble

Q: With “MSLRETLKTIAETLNVTHTTVSNVFNRPEKVSPELREKILAYAESINYHGPAGAGRFLRTGKCGTLGVIFNDNLSYVFSDRHDIALMRGIAEECEKNGINIALMPLKTNNALKKRMMGALVDGYILNATYNNDEVVQAALTSGLPVITTDIKLQNFTCVSIDDGAAMQAICHHLLAAGHKKFGIVSFPVKRLPGELTSLAEFSTDYDNGVAFGRISACITALSDAGIDLHTSYVAEQPHSETGGEKAAKALLAKEPGISAIICLSDRFAFGVYQFCQDHNIPVPGQIAITGFDDIDIQDPPVGLTTIRQPTVLKGREAARALISGQLDNDISLDFELVVRDSAEGHHHHHH” as the sequence, how does the “soluble on expression in E. coli” value read?
A: soluble

Q: For “MQKEKLSALMDGETLDSELLKALTHDPEMQKTWESYHLIRDSMRGDTPDVLHFDISARVMAAIENEPVRQVSPLIPEAQPAPQQWQKMPFWKKVRPWAAQLTQMGVAACVSLAVIVGVQHYNGQSETSQQPETPVFNTLPMMGKASPVSLGVPSEAAPVGSQQQQVQEQRRRINAMLQDYELQRRLHSEQLQFEQAQTQQAAVQVPGIQTLGTQSQ”, which “soluble on expression in E. coli” value is on record?
A: not soluble

Q: Which “soluble on expression in E. coli” value does the source give for “MSVSITFTDAAKRALASIVAQSERQLKLAFDTDGCGCLVDGVPALWLVDKADEDDVVVETNFMPVLVERSRLIFFDEAMTIDVKPGTTVFQLKSPGQTLNGHMPLVEVKSGHER” here?
A: not soluble

Q: For “MDASTHFRDRGALITGLMSGALDAVDAVARTRPAVEVLGLLVPVDGLMEDYLNGRAREGLGVTRSEFEPWRRQLLAVVAALLERWVGDDADLWRALAMRAGSYCGTVVELVDSVVRPEHADPASWAGRAPRWPRGVDASAVLLALAPPGIAEAFLDDCVTNAAAAGVLTRMLDRGPLHPLFVEYALGSLGTEAMRASLNRNPAYAIAQLRDQVLRERTDIAVLEHAYFAPPTDRALRVGLVRLAEAVGGFRPRFISRLESHAEDIASLEPLLVCSDPQLVHWVLRRVNATLKVPAMRWAAYATLALTAGPEPVWALEQERVGTLSRMAEPVRASMSTGSVAPILAAAGAAPVTIGPAGSAIELGAPLIEPWPYTELICEHVEGDGHRADPVDKPAADRPSSTRLGRSAEV”, which “soluble on expression in E. coli” value is on record?
A: not soluble

Q: With “MTNGQSPAGGVQSVERAFDILEIMASAGGSIGVSELADLAGLPLPTIHRLIRTLMNRGYVRQLPTRRYALGPKLIRLGESATQLIGAWSRPHLSELVRGTGETANMAVLDGTMAVYVAQVPSEHAMRMFTEVGRRVYPHCTGVGKAILMQLSNDAVRSLVGRTGMTTYTENSLTDPDMLIADLELSRNRGFAIDEGEQEIGVRCFSVPVPNAPTPTAISVSGPAARVTLESADHIVPLLKRVAKELGTEFDKNAAL” as the sequence, how does the “soluble on expression in E. coli” value read?
A: not soluble

Q: Which “soluble on expression in E. coli” value does the source give for “MQRKTFADAECPIARSLERVGEWWSILIMRDALQGLRRFDEFSRSLDIAPNMLTRRLNALVEAGLLERQPYSQRPLRYQYVPTAKGEDFRVVLMAFVAWGNRHYAEEGQSVQLVERTSGRPVRSFMAALADGRTVPLEQCTVQAGPAASEEMRQRLAAMPERSELPAR” here?
A: not soluble

Q: With “MKKRALVSVSDKTGVVEFVKGLLEQGIEVISTGGTKKLLEENGLQVIGISEVTGFPEIMDGRVKTLHPNIHGGLLAVRDNETHVAQMNELGMEPIDFVVVNLYPFKETIAKPDVTFADAIENIDIGGPTMIRSAAKNHKFVSVIVDPVDYDVVLAELKENGEVAEETKRKLAAKVFRHTAAYDALISNYLTEQMGEESPETLTVTFEKKQDLRYGENPHQKATFYKAPFAATSSVAYAEQLHGKELSYNNINDADAALSIVKEFTEPAVVAVKHMNPCGVGVGTDIHEAYTRAYEADPVSIFGGIIAANREIDKATAEKLHEIFLEIIIAPSFSKEALEVLQSKKNLRLLTVNIEKATSASKKLTSVQGGLLVQEEDTLSLDESTISIPTKREPSEQEWKDLKLAWKVVKHVKSNAIVLAKDDMTIGVGAGQMNRVGSAKIAITQAGEKAQGSALASDAFFPMPDTVEEAAKAGITAIIQPGGSIRDEDSIKVADTYGIAMVFTGVRHFKH” as the sequence, how does the “soluble on expression in E. coli” value read?
A: not soluble

Q: Which “soluble on expression in E. coli” value does the source give for “MGSDKIHHHHHHMKLSPTAQPFLHLHNLFILHQKVLVVKPMKELFPGLKRFRAYLNTAGLGLMPLTVYQKVNEFLLDVINYEDGINAVEILDELYFNPMLKKAAKLMKTNPENITVSLQTTDGLKRILTSLTPKKGMKIVSFDLEFPTISAILKSYAKRHGLEVKVIGNKGGLYYMEDVERVIDDNTFAVVFSDVQWITGQRMPTKEIAGVAHEHGAWVIVDAVQSLGALEVYPEKMEVDALVAGGEKWLLNPNTGSGVMWISEELIEVSEPILGLLNTQPEVPWSEWWGDERKDVWDILPVRKDARKLDPGTPPYVSIVALDASLELINSVGIEKIEKHDMKLAKRVREYAYELGVTALGSSQITLLRLGVDYVKQREIVKNLEEKGIVVSLRGAKGIFGIRVSPHLYNTEDDIVTLFDELSKFF” here?
A: not soluble

Q: For “MNSLSLPHRYPFLFIDGVTDSEPGKHAAAYKLISENDWFITDTQTEMPFSLVIEGLRKPRLLQELQMRTAWDYCLRKRKSWEKLCLVTGLILRLKSRAIGAGLCSDMPRHQLESSLLLKLKSASILKNEKNPSQHFVRGSILCRNPVRFESYLFAGVCVFHHSYFPSALHLEHHHHHH”, which “soluble on expression in E. coli” value is on record?
A: not soluble

Q: With “MNDALHIGLPPFLVQANNEPRVLAAPEARMGYVLELVRANIAADGGPFAAAVFERDSGLLIAAGTNRVVPGRCSAAHAEILALSLAQAKLDTHDLSADGLPACELVTSAEPCVMCFGAVIWSGVRSLVCAARSDDVEAIGFDEGPRPENWMGGLEARGITVTTGLLRDAACALLREYNACNGVIYNARCGVHK” as the sequence, how does the “soluble on expression in E. coli” value read?
A: soluble

Q: Which “soluble on expression in E. coli” value does the source give for “MSLSQPIYKRILLKLSGEALQGEDGLGIDPAILDRMAVEIKELVEMGVEVSVVLGGGNLFRGAKLAKAGMNRVVGDHMGMLATVMNGLAMRDSLFRADVNAKLMSAFQLNGICDTYNWSEAIKMLREKRVVIFSAGTGNPFFTTDSTACLRGIEIEADVVLKATKVDGVYDCDPAKNPDAKLYKNLSYAEVIDKELKVMDLSAFTLARDHGMPIRVFNMGKPGALRQVVTGTEEGTTICEGHHHHHH” here?
A: soluble

Q: With “MTSAAQLTALLHLASPALPVGAFSYSQGLEAAVEARHVHDEASAARWIAEGLAVLAACEAPLWLLQYADWQAGRLDAVAERDGWFLATRETRELRLETAQMGWSLARLIAQMGWGAPAMRDALAARAAITFPTAFAAAAVALGIEARDGLTAYSFAWVENQVAAAVKAIPLGQAAGQRILFGLHAAVGQAAEDAARRAACHPPELSTFSPGLGVLSARHETQYSRLFRSLEHHHHHH” as the sequence, how does the “soluble on expression in E. coli” value read?
A: not soluble

Q: For “DEEPMHYGNIMYDRRVIRGNTYALQTGPLLGRPDSLELQRQREARKRALARKQAQEQLRPQTPEPVEGRKHVDVQTELYLEEIADRIIEVDMECQTDAFLDRPPTPLFIPAKTGKDVATQILEGELFDFDLEVKPVLEVLVGKTIEQSLLEVMEEEELANLRASQREYEELRNSERAEVQRLEEQERRHREEKERRKKQQWEIMHKHNETSQKIAARAFAQRYLADLLPSVFGSLRDSGYFYDPIERDIEIGFLPWLMNEVEKTMEYSMVGRTVLDMLIREVVEKRLCMYE”, which “soluble on expression in E. coli” value is on record?
A: not soluble

Q: Which “soluble on expression in E. coli” value does the source give for “MSLGELFAVFNEKLTIPEQEALMFLYAYMPTGDVTDYTGDYYLENVRLSDQARREMPWGKEIPDDVFRHFVLPIRVNNENLDDSRRVFYNELKDRVKNLSLHDAVLEVNHWCHEKVIYTPSDARTSAPLASVKTAYGRCGEESTFTVAALRSVGIPARQVYTPRWAHTDDNHAWVEAWVDGKWYFFGACEPEPVLNLGWFNAPASRGMLMHTKVFGRYTGQEEIMYETPNYTEINVIDNYAPTAKGSVLVTDAEGQPVADATVEFKVYNYAEFYTVATKHTDRSGHASLTAGKGDMLVWASKDGRFGYSKLSFGKDNELKITLDKNASETYSLPLDIVPPAEGEGHHHHHH” here?
A: not soluble
